# Tests used:
# [1] = target: anti-CMVpHLA antibody (available from Ajou University)
# [2] = target: anti-CMVpHLA antibody (available from Ajou University); remark: listed apart in the source
# [3] = target: Fcµ receptor (R&D systems) (UniProt O60667); assay: ELISA, Fcµ coated, anti-IgM-HRP; IMB-4011 = 100
# [4] = target: pIgR (polymeric Ig receptor; R&D systems) (UniProt P01833); assay: ELISA, pIgR coated, anti-IgM-HRP; IMB-4011 = 100
# [5] = target: Fcα/µ receptor (R&D systems) (UniProt Q8WWV6); assay: ELISA, Fcα/µ coated, anti-IgM-HRP; IMB-4011 = 100
# [6] = target: Fcµ receptor (R&D systems) (UniProt O60667); assay: ELISA, Fcµ coated; IMB-4011 = 100 (Example 2-7)
# [7] = target: pIgR (polymeric Ig receptor; R&D systems) (UniProt P01833); assay: ELISA, pIgR coated; IMB-4011 = 100 (Example 2-7)
# [8] = target: Fcα/µ receptor (R&D systems) (UniProt Q8WWV6); assay: ELISA, Fcα/µ coated; IMB-4011 = 100 (Example 2-7)
# [9] = target: conjugate of FcRn and β2m antigen (ACRO biosystems) (UniProt P55899)
substance,measurement,setting,value
CMVpHLA (peptide-MHC),Kd,[1],1.84 nM
same,koff,[1],0.00464 s⁻¹
same,kon,[1],2.52e+06 M⁻¹ s⁻¹
[(CMVpHLA)2-((GGGGS)3)2-(IgM Fc region)]5-(J chain) (from UniProt P01591 23-159) (Fc fusion),Kd,[1],0.00622 nM
[(CMVpHLA)2-(IgA hinge region)2-(IgM Fc region)]5-(J chain) (from UniProt P01591 23-159) (Fc fusion),Kd,[1],0.00586 nM
[(CMVpHLA)2-(IgD hinge region)2-(IgM Fc region)]5-(J chain) (from UniProt P01591 23-159) (Fc fusion),Kd,[1],0.00681 nM
same,EC50 (read off the curve),[2],0.02 nM
[(CMVpHLA)2-(IgD hinge region)2-(IgM Fc region)]6-(J chain)0 (Fc fusion),Kd,[1],0.0233 nM
same,koff,[1],0.000197 s⁻¹
same,kon,[1],8.44e+06 M⁻¹ s⁻¹
[(CMVpHLA)2-(linker)0-(IgM Fc region)]5-(J chain) (from UniProt P01591 23-159) (Fc fusion),Kd,[1],0.0102 nM
same,EC50 (read off the curve),[2],0.01 nM
[(CMVpHLA)2-(linker)2-(IgG Fc region)-(IgM Fc region L126 deletion)]5-(J chain) (from UniProt P0DOX6 341-576; P01591 23-159) (Fc fusion),Relative binding ability to Fcµ receptor (%),[3],12%
same,Relative binding ability to pIgR (%),[4],6%
same,Relative binding ability to Fcα/µ receptor (%),[5],1%
[(CMVpHLA)2-(linker)2-(IgG Fc region)-(IgM Fc region L126G)]5-(J chain R106V) (from UniProt P0DOX6 341-576; P01591 23-159) (Fc fusion),Relative binding ability to Fcµ receptor (%),[6],3%
same,Relative binding ability to pIgR (%),[7],2%
same,Relative binding ability to Fcα/µ receptor (%),[8],0.4%
[(CMVpHLA)2-(linker)2-(IgG Fc region)-(IgM Fc region L126G)]5-(J chain R106W) (from UniProt P0DOX6 341-576; P01591 23-159) (Fc fusion),Relative binding ability to Fcµ receptor (%),[6],3%
same,Relative binding ability to pIgR (%),[7],2%
same,Relative binding ability to Fcα/µ receptor (%),[8],0.5%
[(CMVpHLA)2-(linker)2-(IgG Fc region)-(IgM Fc region L126G)]5-(J chain) (from UniProt P0DOX6 341-576; P01591 23-159) (Fc fusion),Relative binding ability to Fcµ receptor (%),[3],7%
[(CMVpHLA)2-(linker)2-(IgG Fc region)-(IgM Fc region L126S)]5-(J chain R106V) (from UniProt P0DOX6 341-576; P01591 23-159) (Fc fusion),Relative binding ability to Fcµ receptor (%),[6],3%
same,Relative binding ability to pIgR (%),[7],2%
same,Relative binding ability to Fcα/µ receptor (%),[8],1%
[(CMVpHLA)2-(linker)2-(IgG Fc region)-(IgM Fc region L126S)]5-(J chain R106W) (from UniProt P0DOX6 341-576; P01591 23-159) (Fc fusion),Relative binding ability to Fcµ receptor (%),[6],3%
same,Relative binding ability to pIgR (%),[7],3%
same,Relative binding ability to Fcα/µ receptor (%),[8],1%
[(CMVpHLA)2-(linker)2-(IgG Fc region)-(IgM Fc region L126S)]5-(J chain) (from UniProt P0DOX6 341-576; P01591 23-159) (Fc fusion),Relative binding ability to Fcµ receptor (%),[3],7%
same,Relative binding ability to pIgR (%),[4],8%
[(CMVpHLA)2-(linker)2-(IgG Fc region)-(IgM Fc region N125K)]5-(J chain) (from UniProt P0DOX6 341-576; P01591 23-159) (Fc fusion),Relative binding ability to Fcµ receptor (%),[3],7%
[(CMVpHLA)2-(linker)2-(IgG Fc region)-(IgM Fc region)]5-(J chain D105K) (from UniProt P0DOX6 341-576; P01591 23-159) (Fc fusion),Relative binding ability to pIgR (%),[4],8%
[(CMVpHLA)2-(linker)2-(IgG Fc region)-(IgM Fc region)]5-(J chain N107K) (from UniProt P0DOX6 341-576; P01591 23-159) (Fc fusion),Relative binding ability to pIgR (%),[4],8%
[(CMVpHLA)2-(linker)2-(IgG Fc region)-(IgM Fc region)]5-(J chain R106 deletion) (from UniProt P0DOX6 341-576; P01591 23-159) (Fc fusion),Relative binding ability to Fcµ receptor (%),[3],59%
same,Relative binding ability to pIgR (%),[4],4%
same,Relative binding ability to Fcα/µ receptor (%),[5],1%
[(CMVpHLA)2-(linker)2-(IgG Fc region)-(IgM Fc region)]5-(J chain R106F) (from UniProt P0DOX6 341-576; P01591 23-159) (Fc fusion),Relative binding ability to Fcα/µ receptor (%),[5],7%
[(CMVpHLA)2-(linker)2-(IgG Fc region)-(IgM Fc region)]5-(J chain) (from UniProt P0DOX6 341-576; P01591 23-159) (Fc fusion),EC50 (read off the curve),[9],200 nM

# — patent US20250257137A1
